Substitutions are numbered along the chain they refer to. Numbers in names are those of the source.
T1: cynomolgus monkey ANGPTL3(17-460)-His (cynomolgus monkey, UniProt Q9Y5C1 17-460 (human entry), biotin-labelled in the ELISA and HTRF assays (sites not given))
T1 construct: also called full-length cynomolgus monkey ANGPTL3; Cyno ANGPTL3
T1 chain: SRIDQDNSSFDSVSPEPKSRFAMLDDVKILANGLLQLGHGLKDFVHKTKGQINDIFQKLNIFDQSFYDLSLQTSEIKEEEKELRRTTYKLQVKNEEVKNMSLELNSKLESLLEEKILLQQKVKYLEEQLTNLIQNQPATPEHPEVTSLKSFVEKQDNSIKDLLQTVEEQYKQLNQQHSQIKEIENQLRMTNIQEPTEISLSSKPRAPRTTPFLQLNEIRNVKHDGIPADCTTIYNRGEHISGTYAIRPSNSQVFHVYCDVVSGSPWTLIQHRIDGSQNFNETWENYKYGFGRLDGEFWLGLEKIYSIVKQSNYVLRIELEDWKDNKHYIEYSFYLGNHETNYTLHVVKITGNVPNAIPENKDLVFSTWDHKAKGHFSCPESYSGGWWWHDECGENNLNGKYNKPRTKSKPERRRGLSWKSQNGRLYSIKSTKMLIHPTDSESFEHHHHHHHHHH

T2: mouse ANGPTL3(17-455)-His (mouse, UniProt Q9R182 17-455, biotin-labelled in the ELISA and HTRF assays (sites not given))
T2 construct: also called full-length mouse ANGPTL3
T2 sequence: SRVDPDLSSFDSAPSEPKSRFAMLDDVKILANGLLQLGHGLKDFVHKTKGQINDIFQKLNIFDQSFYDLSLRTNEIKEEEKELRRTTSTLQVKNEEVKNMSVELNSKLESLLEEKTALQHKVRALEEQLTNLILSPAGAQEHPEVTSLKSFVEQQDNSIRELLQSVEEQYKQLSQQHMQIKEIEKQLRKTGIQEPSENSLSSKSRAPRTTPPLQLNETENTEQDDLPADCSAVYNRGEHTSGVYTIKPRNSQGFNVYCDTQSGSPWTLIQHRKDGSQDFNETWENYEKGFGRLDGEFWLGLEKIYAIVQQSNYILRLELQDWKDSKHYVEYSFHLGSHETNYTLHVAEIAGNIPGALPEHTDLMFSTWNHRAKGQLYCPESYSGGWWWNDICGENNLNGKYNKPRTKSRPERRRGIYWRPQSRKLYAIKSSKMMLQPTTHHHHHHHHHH

T3: rat ANGPTL3(17-455)-His (rat, biotin-labelled in the ELISA and HTRF assays (sites not given))
T3 construct: also called full-length rat ANGPTL3
T3 chain: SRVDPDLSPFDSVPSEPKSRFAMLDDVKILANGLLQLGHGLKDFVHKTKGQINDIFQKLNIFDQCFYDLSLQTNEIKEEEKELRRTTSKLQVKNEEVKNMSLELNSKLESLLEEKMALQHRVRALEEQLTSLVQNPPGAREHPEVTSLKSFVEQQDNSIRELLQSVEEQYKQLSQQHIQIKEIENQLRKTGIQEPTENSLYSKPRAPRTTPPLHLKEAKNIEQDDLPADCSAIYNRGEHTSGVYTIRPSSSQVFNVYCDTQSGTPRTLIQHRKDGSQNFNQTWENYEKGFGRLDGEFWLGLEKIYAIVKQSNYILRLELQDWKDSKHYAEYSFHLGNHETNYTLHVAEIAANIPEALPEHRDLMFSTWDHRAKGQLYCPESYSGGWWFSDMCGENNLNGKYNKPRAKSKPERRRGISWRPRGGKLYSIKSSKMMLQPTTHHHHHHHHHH

B1: P3G (antibody, human IgG4 S228P, kappa, V domains shown)
VH: QVQLVQSGAEVKKPGASVKVSCKSSGYTFTDYYLHWLRQAPGQGPEWMGWISPNSGGTSYAQKFQGRVTMTRDTSISTAYMELSSLRSDDTAVYYCARDIATLGNFFTYGMDVWGQGTTVTVSS
VL: DIQLTQSPSSLSASVGDRVTITCRASQGIRNDLGWYQQKPGKAPKLLIYAASSLQSGVPSRFSGSGSGTDFTLTISSLQPEDFATYYCQQSYSSWTFGQGTKVEIKR
notes: also called anti-ANGPTL3 antibody P3G; P3 (variable regions)
B2: P8G (antibody, human IgG4 S228P, kappa, V domains shown)
VH: QVQLVQSGAEVKKPGASVKVSCKASGYTFTSYDINWVRQAPGQGLEWVGLINPRDDSTSYAQKFQGRVTMTRDTSTSTMYMELSSLRSEDTAVYFCARDLGSIREVLYYGMDVWGQGTTVTVSS
VL: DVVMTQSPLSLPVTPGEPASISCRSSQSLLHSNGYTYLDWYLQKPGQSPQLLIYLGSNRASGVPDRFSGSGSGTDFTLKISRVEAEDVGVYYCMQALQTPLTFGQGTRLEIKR
notes: also called anti-ANGPTL3 antibody P8G; P8 (variable regions)
B3: P8BG (antibody, human IgG4 S228P, kappa, V domains shown)
VH: B2 VH with D55E
VL: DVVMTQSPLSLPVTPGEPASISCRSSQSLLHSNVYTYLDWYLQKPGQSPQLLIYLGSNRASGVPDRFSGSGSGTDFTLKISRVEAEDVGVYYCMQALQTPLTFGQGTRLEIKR
notes: also called anti-ANGPTL3 antibody P8BG; P8B (variable regions)

Tests used:
Assay in all cases: ELISA; biotin-labelled antigen on streptavidin-coated plate
[1] = target: T1, cynomolgus monkey ANGPTL3(17-460)-His
Experimental: (§1) An anti-ANGPTL3 antibody inhibited or interfered with at least one activity of an ANGPTL3 protein by binding to the ANGPTL3 protein. The binding activity of the anti-ANGPTL3 antibody to the ANGPTL3 antigen was tested by an ELISA assay. The ANGPTL3 protein (human ANGPTL3(17-170)-mFc) was immobilized on a 96-well microplate by binding to the goat anti-mouse IgG coated on the microplate, and the binding activity of the antibody to the ANGPTL3 was determined according to the intensity of the signal after the antibody was added.
(§2) Streptavidin (Sigma, S4762-5MG) was diluted to a concentration of 3 μg/mL with PBS buffer (Shanghai BasalMedia, B320, pH 7.4), added to a 96-well microplate (Corning, CLS3590-100EA) at 50 μL/well, and then incubated in an incubator at 37° C. for 3 h or incubated at 4° C. overnight (16-18 h). After the liquid was discarded, a PBS-diluted 5% skim milk (BD, 232100) blocking solution was added at 250 μL/well, and the mixture was incubated in an incubator at 37° C. for 3 h or incubated at 4° C. overnight (16-18 h) for blocking. […] The mixture was incubated in an incubator at 37° C. for 2 h. After the incubation was finished, the reaction solution in the microplate was discarded. The plate was washed 3 times with PBST, and then a test antibody that was diluted with a sample diluent to different concentrations was added at […]. The mixture was incubated in an incubator at 37° C. for 2 h.

[2] = target: T2, mouse ANGPTL3(17-455)-His
Experimental: as §1, §2

[3] = target: T3, rat ANGPTL3(17-455)-His
Experimental: as §1, §2

Row | Binder | EC50 [1] | EC50 [2] | EC50 [3]
1 | B1 | 4.55 nM | 1.63 nM | 1.44 nM
2 | B2 | 2.53 nM | 1.73 nM | 2.12 nM
3 | B3 | 0.2 nM | 0.105 nM | 0.528 nM

Source: patent publication US20230138315A1 (JIANGSU HENGRUI MEDICINE, published 2023)
